From paper PMC6737233, “A novel epitope-presenting thermostable scaffold for the development of highly specific insulin-like growth factor-1/2 antibodies” (The Journal of Biological Chemistry, 2019) come the findings set out here.

Experiment [1] has as its target T1, IGF-1 linear sequence stretch Lys75 to Arg84 (on 15-mer array peptides) (Homo sapiens (Human).).
T1 construct: human IGF-1, stretch Lys75–Arg84 (numbers on UniProtKB P05019), mapped with 15-mer peptides off-set by 1 amino acid; The peptides on the array were 15 amino acids long; source: synthetic peptide, spotted on Intavis CelluSpots glass slides
T1 chain: KPTGYGSSSR
Kind of experiment: peptide or protein array; Intavis CelluSpots slides with 15-mer peptides (off-set 1) of human IGF-1, and an alanine scan; 1 μg/ml antibody in TBST, ambient temperature, 2 h; HRP secondary antibody, chemiluminescence.

Experiment [2] addresses T2, human recombinant IGF-1 (insulin-like growth factor 1) (Homo sapiens (Human)., UniProt P05019).
T2 construct: insulin-like growth factor 1, human, mature 70-amino acid polypeptide hormone (7.7 kDa; 7.6-kDa recombinant analyte); loop positions 74–90 are counted on UniProtKB P05019; Two suppliers are named (PeproTech for SPR, Roche Penzberg for ECLIA); They are kept as one molecule because both are recombinant mature human IGF-1; also called mature human IGF-1; source: bought: PeproTech (100-11) (SPR); …
In words: SPR; Biacore T200, 25 °C, HBS-EP (10 mM HEPES pH 7.4, 150 mM NaCl, 1 mM EDTA, 0.05% Tween 20); mAb from clone culture supernatant captured by immobilised polyclonal rabbit anti-mouse IgG on CM5; analytes injected at 90, 30, 10, 3.3, 1.1, 0 nM, in triplicate; dissociation 5, 30 or 120 min (IGF-1 on anti–IGF-1: 120 min); 1:1 Langmuir fit. Particulars: one partner purified.

Experiment [3] concerns the target T3, TtSlyD-IGF-1(74–90) (Thermus thermophilus (strain ATCC …)).
T3 construct: Thermus thermophilus SlyD, FKBP domain upstream of the insertion site (Nt-SlyD-FKBP); the printed cell begins with the MRGS tag, which replaces Met1; single glycine linker; human IGF-1 loop, positions 74–90 of UniProtKB P05019, grafted in place of the IF domain (TtSlyD residues 67–121); Thermus thermophilus SlyD, FKBP domain downstream of the insertion site (Ct-SlyD-FKBP), from Ala122; The SPR …
T3 chain: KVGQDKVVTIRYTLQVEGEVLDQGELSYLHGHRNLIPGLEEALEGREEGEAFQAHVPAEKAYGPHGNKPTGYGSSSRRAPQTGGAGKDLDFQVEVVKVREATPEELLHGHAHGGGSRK
Described as above. Particulars: one partner purified.

The target of experiment [4] is T2, human recombinant IGF-1 (insulin-like …). The description is as above. Particulars: one partner purified. The source holds these as a separate data set.
In experiment [5] the target is T4, human recombinant IGF-2 (insulin-like growth factor 2) (Homo sapiens (Human)., UniProt P01344).
T4 construct: insulin-like growth factor 2, human, mature 67-amino acid peptide (7.5 kDa; 7.2-kDa recombinant analyte); loop positions 53–65 are counted on UniProtKB P01344; also called mature IGF-2; source: bought: PeproTech (100-12)
The description is as above. Particulars: one partner purified.

T2 sequence (P05019 49-118): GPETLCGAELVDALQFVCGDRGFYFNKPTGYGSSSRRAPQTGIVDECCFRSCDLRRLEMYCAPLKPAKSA
T4 sequence (P01344 25-91): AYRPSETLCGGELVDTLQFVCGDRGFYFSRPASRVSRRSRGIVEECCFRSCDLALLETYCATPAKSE

B1: mAb anti–IGF-1(74–90) (antibody, V domains shown)
VH: QVQLQQSGAELVRPGSSVKISCKASGYAFSNLWMNWVKQRPGQGLEWIGQIYPGDGDTNYYGDFKGKATLTADSSSSTAYMQLSRLTSEDSAVYFCARIGYYGMDYWGQGTSVTVSS
VL: DVVLTQTPLSLPVNIGDEASISCKSTKSLLSSDGLTYLDWYLQKPGQSPQVLIYLVSNRFSGVPDRFSGSGSGTDFTLKISRVEAEDLGVYYCFQSNYLPTFGAGTKLELK
notes: Murine monoclonal antibody raised with TtSlyD-IGF-1(74–90); In the ECLIA it stood as a biotinylated or ruthenylated conjugate (lysine ε-amino groups); also called mAb IGF-1(74–90); anti–IGF-1 antibody; source: mouse hybridoma; clone culture supernatant captured on the sensor (SPR); purified from the cell culture supernatant (immunoconjugates for ECLIA)
As for B1, the binding result in experiment [1] was “binds”. Besides, in experiment [2], the Kd turned out to be 5.5 pM, the koff came out at 1.7e-05 s⁻¹ and the kon turned out to be 3e+06 M⁻¹ s⁻¹. In experiment [3], this molecule gave a Kd of 31 pM, a koff of 2.8e-05 s⁻¹ and a kon of 920000 M⁻¹ s⁻¹. In addition, in experiment [4], the t1/2 diss turned out to be 11.3 h. Also, in experiment [5], the binding result was “no binding (tested: 90 nM)”.

As a reminder, the Kd is the free concentration of one partner at which half of the binding sites on the other are occupied at equilibrium, for simple one-to-one binding. The term koff denotes a measure of how fast the partners let go of each other. Broadly, the kon is the rate constant with which the complex forms.
